Values of other authors as cited in patent publication US12599654B2, “Immunogenic peptide fragments of metalloprotease ADAMTS-7 and uses thereof in anti-atherosclerosis and related diseases” (BEIJING KIMWAY BIOTECH CO. LTD, priority 2019, dated 2026).

Target: T1, proprotein convertase subtilisin/kexin type 9 (PCSK9) (Homo sapiens, UniProt Q8NBP7)
T1 construct: host or cells: human trial subjects (endogenous circulating PCSK9)
Conditions: low-dose, phase I clinical trials; cited from earlier work

In the case of “REGN727: monoclonal antibody against the proprotein convertase subtilisin/kexin type 9 (PCSK9)”, the “reduction of LDL level of subjects” value is given as “more than 30%”.
